We go through one substance from publication doi:10.1101/2022.10.18.22281172.

Experiment [1] addresses cynomolgus macaque FcRn (cynomolgus macaque) (UniProt Q8SPV9). As to the kind of experiment: SPR. (Surface plasmon resonance follows binding to a sensor surface in real time, without labels.)
In experiment [2] the target is human neonatal Fc receptor (human) (UniProt P55899). As to the kind of experiment: SPR.
UniProt P55899, sequence (P55899 24-365): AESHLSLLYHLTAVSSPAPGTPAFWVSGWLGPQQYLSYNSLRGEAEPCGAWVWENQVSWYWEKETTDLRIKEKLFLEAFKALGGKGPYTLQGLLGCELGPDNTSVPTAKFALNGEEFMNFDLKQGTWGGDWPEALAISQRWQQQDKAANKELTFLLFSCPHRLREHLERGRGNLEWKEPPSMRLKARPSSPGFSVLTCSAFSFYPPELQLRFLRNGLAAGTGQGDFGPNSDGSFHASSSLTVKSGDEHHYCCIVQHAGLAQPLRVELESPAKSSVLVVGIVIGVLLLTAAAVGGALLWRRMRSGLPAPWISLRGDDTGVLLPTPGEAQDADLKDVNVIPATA

UniProt Q8SPV9, sequence (Q8SPV9 24-365): as the sequence (P55899 24-365) above, with N39D, E44Q, G99S, S189G, S190N, L217M, S269T, V319S, L332S, V335I counted along it

As for adintrevimab (antibody), the fold higher affinity relative to ADG2 was determined as 5 fold in experiment [1] and 6 fold in experiment [2].
